Measured values published in IntAct's records for PubMed 16600184.

B1: Phospholipid-transporting ATPase accessory subunit LEM3 (Saccharomyces cerevisiae), P42838 (parent)
chain: MVNFDLGQVGEVFRRKDKGAIVSGDNPEEEEDVDASEFEEDEVKPVRTKNRRPKEDAFTQQRLAAINPVLTPRTVLPLYLLIAVVFVIVGGCILAQNSKVDEVTIYYQDCMTNATSSWSDIPSEHWQFVFHKYKTYNTAPQWRFVDDESDDFTKQRGTCQIRFTTPSDMKNNVYLNYVLEKFAANHRRYVLSFSEDQIRGEDASYETVHDATGINCKPLSKNADGKIYYPCGLIANSMFNDTFPLQLTNVGDTSNNYSLTNKGINWESDKKRYKKTKYNYTQIAPPPYWEKMYPDGYNETNIPDIQDWEEFQNWMRPGAFDKITKLIRINKNDTLPAGEYQLDIGLHWPVLEFNGKKGIYLTHGSHLGGRNPFLGIVYLIGGCICAAMALILLTFWLFGGRKIADASSLSWNMK

Variants of: B1
Conditions: with atc5_yeast DNF1, P32660
Sequence of atc5_yeast DNF1, P32660 (P32660 whole entry): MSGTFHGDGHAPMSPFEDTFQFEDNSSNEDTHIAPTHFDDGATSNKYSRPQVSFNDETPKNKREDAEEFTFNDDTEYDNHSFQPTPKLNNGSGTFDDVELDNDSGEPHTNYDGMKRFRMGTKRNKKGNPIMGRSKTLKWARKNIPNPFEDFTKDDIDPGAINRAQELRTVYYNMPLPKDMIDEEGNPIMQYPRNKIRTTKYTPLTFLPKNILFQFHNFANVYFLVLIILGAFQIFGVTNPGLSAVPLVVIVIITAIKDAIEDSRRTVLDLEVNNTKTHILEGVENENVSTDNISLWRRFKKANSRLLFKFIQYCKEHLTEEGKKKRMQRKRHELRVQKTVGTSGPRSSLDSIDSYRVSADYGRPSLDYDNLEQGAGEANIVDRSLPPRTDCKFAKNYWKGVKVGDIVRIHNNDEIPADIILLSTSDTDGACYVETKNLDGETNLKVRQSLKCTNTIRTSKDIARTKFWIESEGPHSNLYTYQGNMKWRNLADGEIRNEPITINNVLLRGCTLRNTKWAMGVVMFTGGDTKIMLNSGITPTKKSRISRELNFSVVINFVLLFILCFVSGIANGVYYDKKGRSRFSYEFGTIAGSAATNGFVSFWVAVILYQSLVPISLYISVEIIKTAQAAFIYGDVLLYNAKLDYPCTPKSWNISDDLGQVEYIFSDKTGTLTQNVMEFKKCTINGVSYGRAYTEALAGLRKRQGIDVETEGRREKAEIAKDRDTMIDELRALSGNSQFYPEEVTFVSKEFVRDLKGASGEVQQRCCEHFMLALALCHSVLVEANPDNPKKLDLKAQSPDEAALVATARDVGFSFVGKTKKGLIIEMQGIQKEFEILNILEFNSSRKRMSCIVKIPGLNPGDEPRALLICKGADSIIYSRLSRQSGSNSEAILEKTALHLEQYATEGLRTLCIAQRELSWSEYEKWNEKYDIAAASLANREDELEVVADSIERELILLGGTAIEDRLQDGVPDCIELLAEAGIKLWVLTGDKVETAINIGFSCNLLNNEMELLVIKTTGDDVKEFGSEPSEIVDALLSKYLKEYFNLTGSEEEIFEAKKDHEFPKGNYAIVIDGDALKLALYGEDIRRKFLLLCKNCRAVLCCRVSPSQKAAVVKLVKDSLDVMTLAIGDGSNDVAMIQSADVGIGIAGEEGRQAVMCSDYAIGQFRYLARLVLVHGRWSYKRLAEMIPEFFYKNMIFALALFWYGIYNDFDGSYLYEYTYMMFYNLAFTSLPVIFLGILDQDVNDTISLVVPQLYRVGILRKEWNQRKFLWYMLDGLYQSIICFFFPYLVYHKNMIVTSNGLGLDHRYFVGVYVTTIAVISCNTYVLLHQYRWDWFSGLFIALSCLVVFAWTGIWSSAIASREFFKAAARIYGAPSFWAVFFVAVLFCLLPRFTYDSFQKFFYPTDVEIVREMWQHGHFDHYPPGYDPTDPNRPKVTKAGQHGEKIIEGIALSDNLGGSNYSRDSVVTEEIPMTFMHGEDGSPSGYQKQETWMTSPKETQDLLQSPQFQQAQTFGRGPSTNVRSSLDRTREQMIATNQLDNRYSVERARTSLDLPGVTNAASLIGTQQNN

effect of a mutation on the interaction	Variant
with no effect	MVNFDLGQVGEVFRRKDKGAIVSGDNPEEEEDVDASEFEEDEVKPVRTKNRRPKEDAFTQQRLAAINPVLTPRTVLPLYLLIAVVFVIVGGCILAQNSKVDEVTIYYQDCMTNATSSWSDIPSEHWQFVFHKYKTYNTAPQWRFVDDESDDFTKQRGTCQIRFTTPSDMKNNVYLNYVLEKFAANHRRYVLSFSEDQIRGEDASYETVHDATGINCKPLSKNADGKIYYPCGLIANSMFNDTFPLQLTNVGDTSNNYSLTNKGINWESDKKRYKKTKYNYTQIAPPPYWEKMYPDGYNETNIPDIQDWEEFQNWMWPGAFDKITKLIRINKNDTLPAGEYQLDIGLHWPVLEFNGKKGIYLTHGSHLGGRNPFLGIVYLIGGCICAAMALILLTFWLFGGRKIADASSLSWNMK [R316W]

Variants of: B1
Conditions: with atc4_yeast DNF2, Q12675
Sequence of atc4_yeast DNF2, Q12675 (Q12675 whole entry): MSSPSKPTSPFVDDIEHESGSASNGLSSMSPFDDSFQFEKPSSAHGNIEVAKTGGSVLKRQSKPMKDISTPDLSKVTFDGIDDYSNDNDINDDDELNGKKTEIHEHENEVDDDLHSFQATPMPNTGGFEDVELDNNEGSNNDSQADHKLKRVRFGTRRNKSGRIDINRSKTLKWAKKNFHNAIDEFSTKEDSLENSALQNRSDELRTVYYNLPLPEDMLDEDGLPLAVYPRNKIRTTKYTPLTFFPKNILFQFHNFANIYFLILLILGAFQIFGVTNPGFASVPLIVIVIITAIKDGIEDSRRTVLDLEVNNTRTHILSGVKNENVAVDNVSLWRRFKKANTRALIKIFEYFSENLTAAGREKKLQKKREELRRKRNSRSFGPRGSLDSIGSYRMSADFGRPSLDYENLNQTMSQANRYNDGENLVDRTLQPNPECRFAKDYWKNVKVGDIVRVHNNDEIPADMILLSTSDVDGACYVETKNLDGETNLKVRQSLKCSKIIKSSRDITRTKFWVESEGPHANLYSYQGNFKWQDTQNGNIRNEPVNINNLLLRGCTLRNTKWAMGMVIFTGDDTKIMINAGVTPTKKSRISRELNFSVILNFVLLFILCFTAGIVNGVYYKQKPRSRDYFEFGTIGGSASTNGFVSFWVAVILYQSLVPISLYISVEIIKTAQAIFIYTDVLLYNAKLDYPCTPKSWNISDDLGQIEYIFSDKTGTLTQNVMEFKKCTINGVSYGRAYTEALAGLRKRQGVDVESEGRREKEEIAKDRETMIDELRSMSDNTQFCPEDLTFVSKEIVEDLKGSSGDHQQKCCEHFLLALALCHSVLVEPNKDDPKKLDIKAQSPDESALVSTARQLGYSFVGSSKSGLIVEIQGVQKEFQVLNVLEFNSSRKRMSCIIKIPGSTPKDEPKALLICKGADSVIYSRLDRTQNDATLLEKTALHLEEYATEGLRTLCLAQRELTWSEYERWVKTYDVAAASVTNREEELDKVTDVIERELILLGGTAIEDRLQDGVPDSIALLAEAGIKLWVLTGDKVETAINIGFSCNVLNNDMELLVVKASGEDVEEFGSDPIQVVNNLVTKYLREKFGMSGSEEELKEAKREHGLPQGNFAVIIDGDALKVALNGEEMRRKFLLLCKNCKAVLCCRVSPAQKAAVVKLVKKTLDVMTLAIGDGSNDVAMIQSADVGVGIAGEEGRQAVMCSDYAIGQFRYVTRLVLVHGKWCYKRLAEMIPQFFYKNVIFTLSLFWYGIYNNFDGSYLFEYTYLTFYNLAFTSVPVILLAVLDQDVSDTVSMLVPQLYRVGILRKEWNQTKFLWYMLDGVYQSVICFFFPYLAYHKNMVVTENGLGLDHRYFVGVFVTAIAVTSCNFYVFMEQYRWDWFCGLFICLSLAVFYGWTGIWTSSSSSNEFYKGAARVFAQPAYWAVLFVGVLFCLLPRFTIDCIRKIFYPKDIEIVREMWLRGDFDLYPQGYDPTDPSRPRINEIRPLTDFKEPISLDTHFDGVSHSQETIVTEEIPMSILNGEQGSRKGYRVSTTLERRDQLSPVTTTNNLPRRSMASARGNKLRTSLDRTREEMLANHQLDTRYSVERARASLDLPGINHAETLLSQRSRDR

effect of a mutation on the interaction	Variant
with no effect	MVNFDLGQVGEVFRRKDKGAIVSGDNPEEEEDVDASEFEEDEVKPVRTKNRRPKEDAFTQQRLAAINPVLTPRTVLPLYLLIAVVFVIVGGCILAQNSKVDEVTIYYQDCMTNATSSWSDIPSEHWQFVFHKYKTYNTAPQWRFVDDESDDFTKQRGTCQIRFTTPSDMKNNVYLNYVLEKFAANHRRYVLSFSEDQIRGEDASYETVHDATGINCKPLSKNADGKIYYPCGLIANSMFNDTFPLQLTNVGDTSNNYSLTNKGINWESDKKRYKKTKYNYTQIAPPPYWEKMYPDGYNETNIPDIQDWEEFQNWMWPGAFDKITKLIRINKNDTLPAGEYQLDIGLHWPVLEFNGKKGIYLTHGSHLGGRNPFLGIVYLIGGCICAAMALILLTFWLFGGRKIADASSLSWNMK [R316W]
